Measurements taken from PMC5923308.
Like-named read-outs stand apart in the source and are kept apart here.

Experiments:
[1] = biological target: crotoxin (CTX) from Crotalus durissus terrificus venom, heterodimer of CA and CB (Crotalus durissus terrificus)
[2] = biological target: crotoxin basic subunit CB (phospholipase A2) from Crotalus durissus terrificus (Crotalus durissus terrificus) (UniProt P0CG56)
[3] = biological target: crotoxin (CTX) from Crotalus durissus terrificus venom, heterodimer of CA and CB (Crotalus durissus terrificus); remark: listed apart in the source
[4] = biological target: crotoxin basic subunit CB (phospholipase A2) from Crotalus durissus terrificus (Crotalus durissus terrificus) (UniProt P0CG56); remark: listed apart in the source
[5] = biological target: crotoxin basic subunit CB (phospholipase A2) from Crotalus durissus terrificus (Crotalus durissus terrificus) (UniProt P0CG56); assay: ELISA
[6] = biological target: crotoxin basic subunit CB (phospholipase A2) from Crotalus durissus terrificus (Crotalus durissus terrificus) (UniProt P0CG56); assay: ELISA; remark: listed apart in the source
[7] = biological target: crotoxin (CTX) from Crotalus durissus terrificus venom, heterodimer of CA and CB (Crotalus durissus terrificus); assay: SPR; Biacore T200; CTX amine-coupled on a CM5 chip; VHH 2.5 to 0.002 µM in HBS-p (10 mM HEPES, 150 mM NaCl, 3.4 mM EDTA, 0.005% Tween 20, pH 7.4); 30 µL/min, 25 °C; 1:1 Langmuir model
[8] = biological target: crotoxin (CTX) from Crotalus durissus terrificus venom, heterodimer of CA and CB (Crotalus durissus terrificus); assay: SPR; Biacore T200; CTX immobilised on a CM5 chip by EDC/NHS coupling (10 mM acetate, pH 5.5); VHHs injected at 2.5 to 0.002 uM in HBS-p (10 mM HEPES, 150 mM NaCl, 3.4 mM EDTA, 0.005% Tween 20, pH 7.4); 30 uL/min, 25 °C; 1:1 Langmuir model

With VHH KF498604 (clone Cb-16) the inhibition of phospholipase activity on acyl-NBD-PC fluorescent phospholipids, toxin pre-incubated with VHH 30 min at 37 °C, toxin/VHH 1:5 to 1:40 (w/w) [1] was 80%, the inhibition of phospholipase activity on acyl-NBD-PC fluorescent phospholipids, toxin pre-incubated with VHH 30 min at 37 °C, toxin/VHH 1:5 to 1:40 (w/w) [2] was 80% and the reduction of plasma creatine kinase in Swiss mice 3 h after i.m. injection of CTX (1.5 µg) pre-incubated with VHH at 1:10, 1:20 and 1:40 (w/w) (46%, 63%, 78%), against CTX alone [3] was 78.8%. It also gave a reduction of LDH release from murine C2C12 myotubes after 3 h with CB (20 µg) pre-incubated with VHH at 1:2.5 (w/w), against CB alone [4] of 59.3%, a % of the unheated sample's ELISA signal after 1 h at 85 °C [5] greater than 75% and a % of the unheated sample's ELISA signal after 1 h at 95 °C [5] of 100%. The % of the unheated sample's ELISA signal after 1 h at 85 °C [6] was 85%, the Kd [7] was 81.3 nM and the koff [8] was 0.00554 s⁻¹. For the same substance, the kon [8] was 68100 M⁻¹ s⁻¹.
